The source of these data is publication PMC314469, “Protein Interaction Networks by Proteome Peptide Scanning” (PLoS Biology, 2004).

The labels stand for the following.
T1: amphyphisin SH3 (AMPH_HUMAN), P49418
T1 chain: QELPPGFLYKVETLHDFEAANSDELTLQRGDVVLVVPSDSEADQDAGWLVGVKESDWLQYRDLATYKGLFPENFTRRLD

B1: Q9H3T9 40-53 (peptide)
chain: FSDFLKRPIALLKM
B2: Q9NUK8 110-123 (peptide)
chain: FLSIPRRPNWNQNT
B3: O75449 234-247 (peptide)
chain: FFKGIRRPWKGVLM
B4: Q99526 361-374 (peptide)
chain: FGLVPERPLKQELG
B5: Q96IQ9 293-306 (peptide)
chain: AGSSPRRPQGGSDA
B6: Q8WUZ5 5-18 (peptide)
chain: FGRRPRRPVDGRVG
B7: P36959 12-25 (peptide)
chain: FKDVLLRPKRSSLK
B8: Q9UFB1 214-227 (peptide)
chain: AHLPPPRPQRPAET
B9: P49790 786-799 (peptide)
chain: FGDKFKRPIGSWES
B10: BAC04960 97-111 (peptide)
chain: EYHRPAKPPPPPTG
B11: Q96IC8 98-112 (peptide)
chain: FLLLPPRPPPARPE
B12: Q9BPU7 391-404 (peptide)
chain: FEGSLRRPLSWKSL
B13: P17480 292-306 (peptide)
chain: FDGRPTKPPPNSYS
B14: P28288 243-256 (peptide)
chain: FLTRLRRPIGKMTI
B15: Q9HAP2 6-19 (peptide)
chain: FMSSPRRPRSRGRQ
B16: Q99743 208-221 (peptide)
chain: FDNTLSRPSRVPLG
B17: Q12908 58-71 (peptide)
chain: FLGHIKRPWGISVG
B18: Q9UPW7 1021-1034 (peptide)
chain: FAPEFRRPKNIHLR
B19: O60275 1047-1060 (peptide)
chain: EVPDPNRPQRLGLH
B20: O75336 479-493 (peptide)
chain: FGTLPPRPPGQDTS
B21: Q9UQC2 347-361 (peptide)
chain: AIAPPPRPPKPSQA
B22: Q13258 335-348 (peptide)
chain: FHKIFIRPLRYRSR
B23: Q9NVW8 331-344 (peptide)
chain: FERPFRRPNANFTS
B24: Q07283 41-54 (peptide)
chain: FGAVLRRPHDPKTV
B25: O94987 53-66 (peptide)
chain: EWASLLRPLRGREP
B26: Q9NWR1 213-226 (peptide)
chain: FEEGIKRPYFHVKP
B27: O94885 388-402 (peptide)
chain: FDGSPEKPPEDDSD
B28: Q99853 71-84 (peptide)
chain: FIKIPRRPDQPGKG
B29: Q9BXU7 105-118 (peptide)
chain: EVQPPVRPGKGGSV
B30: P23470 266-279 (peptide)
chain: EWIVFRRPVPISYH
B31: P08588 264-278 (peptide)
chain: FLGGPARPPSPSPS
B32: O43508 84-97 (peptide)
chain: FLNRLVRPRRSAPK
B33: Q9HCH8 560-573 (peptide)
chain: AHMAISRPLKASQM
B34: Q96QH2 422-436 (peptide)
chain: FGDLPRKPPLPSSA
B35: P17096 49-62 (peptide)
chain: EVPTPKRPRGRPKG
B36: P78508 165-178 (peptide)
chain: FLAKIARPKKRAET
B37: BAC04305 7-21 (peptide)
chain: EYALPQRPPQGPED
B38: O14802 125-138 (peptide)
chain: FLDYLKRPGLTYLQ

One assay concerns the target T1, amphyphisin SH3 (AMPH_HUMAN), P49418. The experiment in a line: SPOT array.
As for B1, the normalised SPOT signal, Boehringer light units (BLU); mean over the file's lines of this peptide was 22.

Molecule B2 yielded a normalised SPOT signal, Boehringer light units (BLU); mean over the file's lines of this peptide of 164.

Regarding B3, the normalised SPOT signal, Boehringer light units (BLU); mean over the file's lines of this peptide came out at 62.9.

Take B4: the normalised SPOT signal, Boehringer light units (BLU); mean over the file's lines of this peptide is 647.

Molecule B5 showed a normalised SPOT signal, Boehringer light units (BLU); mean over the file's lines of this peptide of 20.7.

Consider B6, for which the normalised SPOT signal, Boehringer light units (BLU); mean over the file's lines of this peptide worked out at 35.7.

B7 returned a normalised SPOT signal, Boehringer light units (BLU); mean over the file's lines of this peptide of 3460.

Take B8: the normalised SPOT signal, Boehringer light units (BLU); mean over the file's lines of this peptide turned out to be 248.

On to B9, for which the normalised SPOT signal, Boehringer light units (BLU); mean over the file's lines of this peptide was found to be 34.

On to B10, for which the normalised SPOT signal, Boehringer light units (BLU); mean over the file's lines of this peptide was found to be 43.8.

For the molecule B11, the normalised SPOT signal, Boehringer light units (BLU); mean over the file's lines of this peptide worked out at 42.3.

As to B12, the normalised SPOT signal, Boehringer light units (BLU); mean over the file's lines of this peptide amounted to 43.8.

Take B13: the normalised SPOT signal, Boehringer light units (BLU); mean over the file's lines of this peptide was 66.2.

Regarding B14, the normalised SPOT signal, Boehringer light units (BLU); mean over the file's lines of this peptide turned out to be 14.2.

Take B15: the normalised SPOT signal, Boehringer light units (BLU); mean over the file's lines of this peptide was found to be 1130.

B16: the normalised SPOT signal, Boehringer light units (BLU); mean over the file's lines of this peptide came to 1220.

Turning to B17, the normalised SPOT signal, Boehringer light units (BLU); mean over the file's lines of this peptide was 34.2.

As to B18, the normalised SPOT signal, Boehringer light units (BLU); mean over the file's lines of this peptide came to 41.6.

B19: the normalised SPOT signal, Boehringer light units (BLU); mean over the file's lines of this peptide was found to be 198.

B20 returned a normalised SPOT signal, Boehringer light units (BLU); mean over the file's lines of this peptide of 52.3.

For the molecule B21, the normalised SPOT signal, Boehringer light units (BLU); mean over the file's lines of this peptide came out at 3020.

B22 showed a normalised SPOT signal, Boehringer light units (BLU); mean over the file's lines of this peptide of 15900.

For the molecule B23, the normalised SPOT signal, Boehringer light units (BLU); mean over the file's lines of this peptide was 4010.

Molecule B24 registered a normalised SPOT signal, Boehringer light units (BLU); mean over the file's lines of this peptide of 18.4.

As for B25, the normalised SPOT signal, Boehringer light units (BLU); mean over the file's lines of this peptide is 308.

With B26, the normalised SPOT signal, Boehringer light units (BLU); mean over the file's lines of this peptide came to 48.9.

Molecule B27 had a normalised SPOT signal, Boehringer light units (BLU); mean over the file's lines of this peptide of 36.5.

Turning to B28, the normalised SPOT signal, Boehringer light units (BLU); mean over the file's lines of this peptide turned out to be 117.

With B29, the normalised SPOT signal, Boehringer light units (BLU); mean over the file's lines of this peptide amounted to 143.

Molecule B30 came in with a normalised SPOT signal, Boehringer light units (BLU); mean over the file's lines of this peptide of 95.2.

B31 returned a normalised SPOT signal, Boehringer light units (BLU); mean over the file's lines of this peptide of 80.6.

Take B32: the normalised SPOT signal, Boehringer light units (BLU); mean over the file's lines of this peptide was 724.

B33 returned a normalised SPOT signal, Boehringer light units (BLU); mean over the file's lines of this peptide of 137.

As to B34, the normalised SPOT signal, Boehringer light units (BLU); mean over the file's lines of this peptide stood at 48.3.

For the molecule B35, the normalised SPOT signal, Boehringer light units (BLU); mean over the file's lines of this peptide stood at 36.

In turn, B36 came in with a normalised SPOT signal, Boehringer light units (BLU); mean over the file's lines of this peptide of 168.

As to B37, the normalised SPOT signal, Boehringer light units (BLU); mean over the file's lines of this peptide stood at 38.5.

B38 yielded a normalised SPOT signal, Boehringer light units (BLU); mean over the file's lines of this peptide of 14.8.

For the next assay, the target named is endophilin SH3 (SH3G2_HUMAN), Q99962. The experiment in a line: SPOT array.
In turn, B1 gave a normalised SPOT signal, Boehringer light units (BLU); mean over the file's lines of this peptide of 399.

The molecule B2 showed a normalised SPOT signal, Boehringer light units (BLU); mean over the file's lines of this peptide of 1230.

Consider B3, for which the normalised SPOT signal, Boehringer light units (BLU); mean over the file's lines of this peptide was 159.

Molecule B4 registered a normalised SPOT signal, Boehringer light units (BLU); mean over the file's lines of this peptide of 284.

Molecule B5 registered a normalised SPOT signal, Boehringer light units (BLU); mean over the file's lines of this peptide of 51.2.

Regarding B6, the normalised SPOT signal, Boehringer light units (BLU); mean over the file's lines of this peptide was 83.3.

On to B7, for which the normalised SPOT signal, Boehringer light units (BLU); mean over the file's lines of this peptide was 557.

Take B8: the normalised SPOT signal, Boehringer light units (BLU); mean over the file's lines of this peptide was found to be 238.

For B9, the normalised SPOT signal, Boehringer light units (BLU); mean over the file's lines of this peptide was found to be 45.5.

B10 gave a normalised SPOT signal, Boehringer light units (BLU); mean over the file's lines of this peptide of 86.

For the molecule B11, the normalised SPOT signal, Boehringer light units (BLU); mean over the file's lines of this peptide was found to be 2020.

Take B12: the normalised SPOT signal, Boehringer light units (BLU); mean over the file's lines of this peptide was found to be 67.7.

With B13, the normalised SPOT signal, Boehringer light units (BLU); mean over the file's lines of this peptide was found to be 351.

As for B14, the normalised SPOT signal, Boehringer light units (BLU); mean over the file's lines of this peptide was 382.

In the case of B15, the normalised SPOT signal, Boehringer light units (BLU); mean over the file's lines of this peptide stood at 1160.

Turning to B16, the normalised SPOT signal, Boehringer light units (BLU); mean over the file's lines of this peptide was 170.

B17 came in with a normalised SPOT signal, Boehringer light units (BLU); mean over the file's lines of this peptide of 116.

Molecule B18 registered a normalised SPOT signal, Boehringer light units (BLU); mean over the file's lines of this peptide of 204.

As for B19, the normalised SPOT signal, Boehringer light units (BLU); mean over the file's lines of this peptide is 228.

For the molecule B20, the normalised SPOT signal, Boehringer light units (BLU); mean over the file's lines of this peptide turned out to be 77.3.

In the case of B21, the normalised SPOT signal, Boehringer light units (BLU); mean over the file's lines of this peptide stood at 5760.

Molecule B22 yielded a normalised SPOT signal, Boehringer light units (BLU); mean over the file's lines of this peptide of 2980.

Turning to B23, the normalised SPOT signal, Boehringer light units (BLU); mean over the file's lines of this peptide was 343.

For the molecule B24, the normalised SPOT signal, Boehringer light units (BLU); mean over the file's lines of this peptide came out at 51.1.

B25 gave a normalised SPOT signal, Boehringer light units (BLU); mean over the file's lines of this peptide of 170.

For the molecule B26, the normalised SPOT signal, Boehringer light units (BLU); mean over the file's lines of this peptide came out at 147.

Turning to B27, the normalised SPOT signal, Boehringer light units (BLU); mean over the file's lines of this peptide is 36.7.

Molecule B28 returned a normalised SPOT signal, Boehringer light units (BLU); mean over the file's lines of this peptide of 479.

Regarding B29, the normalised SPOT signal, Boehringer light units (BLU); mean over the file's lines of this peptide was found to be 136.

In turn, B30 yielded a normalised SPOT signal, Boehringer light units (BLU); mean over the file's lines of this peptide of 557.

For the molecule B31, the normalised SPOT signal, Boehringer light units (BLU); mean over the file's lines of this peptide is 8610.

Take B32: the normalised SPOT signal, Boehringer light units (BLU); mean over the file's lines of this peptide came to 2010.

B33: the normalised SPOT signal, Boehringer light units (BLU); mean over the file's lines of this peptide stood at 417.

On to B34, for which the normalised SPOT signal, Boehringer light units (BLU); mean over the file's lines of this peptide was determined as 994.

In turn, B35 registered a normalised SPOT signal, Boehringer light units (BLU); mean over the file's lines of this peptide of 41.8.

For the molecule B36, the normalised SPOT signal, Boehringer light units (BLU); mean over the file's lines of this peptide worked out at 190.

Molecule B37 displayed a normalised SPOT signal, Boehringer light units (BLU); mean over the file's lines of this peptide of 36.6.

On to B38, for which the normalised SPOT signal, Boehringer light units (BLU); mean over the file's lines of this peptide turned out to be 7.9.
